Laboratory results from patent US20190022198A1, “Individualized Immunomodulation Therapy for Neurodegenerative Disorders, CNS Injury and Age-Related Dementia” (Yeda Research and Development Co. Ltd., priority 2012, published 2019).
“Also recorded” adds a separate entry of the source.

Key:
CP epithelial cells = test: Primary culture of choroid plexus cells treated with cytokines, mRNA by real-time qPCR; assay type: cell-based, mouse; conditions: for gene expression levels of trafficking molecules (ICAM-1, VCAM-1, CCL5, CXCL9, CXCL10, MHC-II): cultured CP cells from WT mice; for gene expression levels of trafficking molecules (ICAM-1, VCAM-1, CCL5, CXCL9, CXCL10, MHC-II) / expression of IFN-γ-receptor (IFN-γR) mRNA: IL-6 10 ng/ml; for gene expression levels of trafficking molecules (ICAM-1, VCAM-1, CCL5, CXCL9, CXCL10, MHC-II) / expression of the chemokine CCL20: IL-17 100 ng/ml; for expression of trafficking-related genes, escalating dosing of the cytokines: escalating dosing (data not shown); for ccl11 mRNA levels (CCL11 expression): cultured CP epithelial cells from young (3 months) mice, 24 hours after addition; for expression of IFN-γ-receptor (IFN-γR) mRNA / expression of the chemokine CCL20: CP epithelial cells; for expression of IFN-γ-receptor (IFN-γR) mRNA: TNF-α 100 ng/ml, IL-1β 100 ng/ml
Procedure: Mice were perfused from the left ventricle of the heart with PBS, and their CPs were removed under a dissecting microscope (Stemi DV4; Zeiss) in PBS into tubes containing 0.25% trypsin, and kept on ice. The tubes were shaken for 20 minutes at 37° C. and the tissue was dissociated by pipetting. The cell suspension was washed in culture medium for epithelial cells (DMEM/HAM's F12 (Invitrogen Corp)) supplemented with 10% FCS (Sigma-Aldrich), 1 mM 1-glutamine, 1 mM sodium pyruvate, 100 U/ml penicillin, […] streptomycin, 5 μg/ml Insulin, 20 μM Ara-C, 5 ng/ml sodium selenite, 10 ng/ml EGF, and cultured (˜250,000 cells/well) at 37° C., 5% CO2 in 24-well plates (Corning Incorporated) coated with poly-L-lysine (PLL; Sigma-Aldrich). After 24 hours, the medium was changed, and the cells were either left untreated, or treated with the indicated cytokines (all purchased from PeproTech): IFN-γ, IL-4, IL-10, IL-17A, GM-CSF, IL-6, IL-1β or TNF-α or their combinations for 24 h. Cell viability was quantified by Trypan blue staining after detachment of the cells with 0.25% trypsin for 10 minutes at 37° C. Neutralizing antibodies to TNF-R1 or TNF-R2 ([…], BioLegend) were added 1 h prior to the addition of TNF-α (100 ng/ml). RNA was isolated using the ZR RNA microprep kit (Zymo Research) according to the manufacturer's protocol.
Total RNA of the hippocampus was extracted with TRI reagent (MRC, Cincinnati, Ohio) and was purified from the lysates and spinal cord using the RNeasy kit (Qiagen, Hilden, Germany). Total RNA of the choroid plexus was extracted using the RNA MicroPrep kit (Zymo Research). mRNA (1 μg) was converted to cDNA using High Capacity cDNA Reverse Transcription Kit (Applied Biosystems). The expression of specific mRNAs was assayed using fluorescence based real-time quantitative PCR (qPCR). qPCR reactions were performed using Power SYBR Green PCR Master Mix (Applied Biosystems). Quantification reactions were performed in triplicates for each sample using the standard curve method. Glyceraldehyde 3-phosphate dehydrogenase (GAPDH), Peptidylprolyl isomerase A (PPIA), and hypoxanthine guanine phosphoribosyltransferase (HPRT) were chosen as reference genes according to their stability in the target tissue. The amplification cycles were 95° C. for 5 sec, 60° C. for 20 sec, and 72° C. for 15 sec. At the end of the assay, a melting curve was constructed to evaluate the specificity of the reaction. For some genes, the cDNA was pre-amplified in 14 PCR cycles with non-random PCR primers, thus increasing the sensitivity of the subsequent real-time PCR analysis (PreAmp Master Mix Kit, Applied Biosystems). For these genes, expression was determined using TaqMan Real-Time PCR, according to manufacturer's instructions (Applied Biosystems). All quantitative real-time PCR reactions were performed and analyzed using the 7500 Real-Time PCR System (Applied Biosystems). The following TaqMan probes were used: Mm02342430_g1 (ppia), Mm00446968_m1 (hprt), Mm00445260_m1 (il-4), Mm01168134_m1 (ifn-γ), Mm00441238_m1 (ccl11), Mm00475988_m1 (arg-1). In addition, the following primers were used: […]

cultured CP cells = test: Immunocytochemistry of cultured CP cells treated with cytokines; assay type: cell-based, mouse
Procedure: For whole mount staining of the choroid plexus, isolated tissues were fixed with 2.5% paraformaldehyde (PFA) for several hours, and subsequently transferred to PBS containing 0.05% sodium azide. Prior to staining, the dissected tissues were washed and blocked (20% horse serum, 0.3% Triton X-100, and PBS) for 1 h at room temperature with shaking. Whole mount staining with primary (in PBS containing 2% horse serum and 0.3% Triton X-100) and secondary antibodies (in PBS), was performed for 1h at room temperature, with shaking. Each step was followed by three washes in PBS. The tissues were mounted onto slides, using Immu-mount (9990402, from Thermo), and sealed with cover-slips. For staining of sectioned brains, two different tissue preparation protocols (paraffin embedded and microtomed frozen sections) were applied, as previously described (Ziv Y et al (2006b)). For immunocytochemistry, CP cells were isolated as described above and were grown on PLL coated cover slips for 7 days, replacing the medium every 3 days. Cytokines were added for the last 3 days of culture. Following 7 days of culture, the wells were washed with PBS and the cells were fixed either with 2.5% paraformaldehyde for 30 min or methanol-acetone (1:1) for 10 min at −20° C., following by 2 washing steps with PBS. For CCL11 staining, cells were treated with Brefeldin-A 2 hours prior to fixation in order to arrest protein secretion. The cover slips of the cultured CP cells were incubated with the indicated antibodies and mounted with Glycerol Vinyl Alcohol (GVA) mounting solution (Invitrogen). The following primary antibodies were used: rat anti-CD3 (Abcam); rat anti-ICAM-1 (1:100; Abcam), chicken anti-vimentin (1:500, Millipore), rabbit anti-Iba1 (1:300; Wako), goat anti-IL-10 (1:20; R&D), mouse anti-MHC-II (Abcam); mouse anti-Arginase-1 (BD Biosciences); mouse anti-Cytokeratin (Covance); rat anti-CCL11 (R&D Systems); rabbit anti-ZO-1 (Invitrogen); and rabbit anti-Claudin-1 (Invitrogen). Secondary antibodies included: Cy2/Cy3-conjugated donkey anti-rat, mouse or rabbit antibody and Cy3 conjugated donkey anti-mouse, goat, rat, chicken or rabbit (1:200; all from Jackson Immuno Research). The slides were exposed to Hoechst stain (1:2000; Invitrogen) for 1 min. Two negative controls were routinely used in immunostaining procedures, staining with isotype control antibody followed by secondary antibody, and staining with secondary antibody alone. For morphological quantification, average cross-sectional area of epithelial cells was measured following Nissl staining. Cell borders (20-25 cells per picture) were marked and the area was quantified using Image-Pro Plus software in a blinded fashion.

Foxp3-DTR mice = test: Foxp3+ Treg depletion by diphtheria toxin in DEREG (Foxp3-DTR) mice; assay type: in vivo, mouse
[1] = 24 hours, IFN-γ 100 ng/ml, IL-4 10 ng/ml

For “IL-4: Th2-derived cytokine, purchased from PeproTech, added to cultured CP cells”, the “gene expression levels of trafficking molecules (ICAM-1, VCAM-1, CCL5, CXCL9, CXCL10, MHC-II)” value (shortened to “gene expression levels”) (CP epithelial cells; [1]) was “no effect on trafficking molecules”, the “expression of trafficking-related genes, escalating dosing of the cytokines” value (from here on “expression of trafficking-related genes”) (CP epithelial cells; cultured CP cells) was “None of the tested cytokines, other than IFN-γ, had any effect” and the “ccl11 mRNA levels (CCL11 expression)” value (CP epithelial cells; IL-4 10 ng/ml, IFN-γ 100 ng/ml) was “expressed high levels of CCL11”. The “arginase-1 (Arg1) expression” value (CP epithelial cells; cultured CP epithelial cells, IL-4 10 ng/ml, 24 h) was “upregulated arginase-1; also recorded: dramatic effect on the upregulation of arginase-1”, the “epithelial tight junctions (ZO-1 staining)” value (cultured CP cells; CP epithelial cell cultures in response to IL-4 (data not shown)) was “dysregulated” and the CCL11 immunoreactivity (cultured CP cells; CP epithelium, IL-4, following Brefeldin-A treatment (data not shown)) was “produced CCL11”. For the same molecule, the Arg1 immunostaining (cultured CP cells; IL-4 (10 ng/ml) treated CP epithelial cells) was “higher relative to untreated cells”.

For diphtheria toxin [DTX], the “Foxp3+ T cells in the spleen, the CP and the CSF” value (Foxp3-DTR mice; DTX 8 ng/g i.p. per day for 4 days, DTR+ mice) was “depleted” and the “mRNA of ICAM-1, CXCL9, CXCL10, CXCL11, MCP-1, MCSF, BDNF and IGF-1 in the CP” value (Foxp3-DTR mice; following Foxp3+ T cells depletion by DTX) was “significantly upregulated”.

B1: IL-10: Treg-derived cytokine, purchased from PeproTech (protein, UniProt P18893 19-178, looked up)
Interleukin-10: SRGQYSREDNNCTHFPVGQSHMLLELRTAFSQVKTFFQTKDQLDNILLTDSLMQDFKGYLGCQALSEMIQFYLVEVMPQAEKHGPEIKEHLNSLGEKLKTLRMRLRRCHRFLPCENKSKAVEQVKSDFNKLQDQGVYKAMNEFDIFINCIEAYMMIKMKS
B1 was tested, and the “expression of trafficking-related genes” value (CP epithelial cells; cultured CP cells) was “None of the tested cytokines, other than IFN-γ, had any effect”.

B2: IL-6: pro-inflammatory cytokine, purchased from PeproTech (protein, UniProt P08505 25-211, looked up)
Interleukin-6: FPTSQVRRGDFTEDTTPNRPVYTTSQVGGLITHVLWEIVEMRKELCNGNSDCMNNDDALAENNLKLPEIQRNDGCYQTGYNQEICLLKISSGLLEYHSYLEYMKNNLKDNKKDKARVLQRDTETLIHIFNQEVKDLHKIVLPTPISNALLTDKLESQKEWLRTKTIQFILKSLEEFLKVTLRSTRQT
For B2, the “expression of IFN-γ-receptor (IFN-γR) mRNA” value (CP epithelial cells; 24 h) was “not”, the “gene expression levels” value (CP epithelial cells; [1]) was “neither IL-17, nor its induced cytokine IL-6, had any effect” and the “expression of trafficking-related genes” value (CP epithelial cells; cultured CP cells) was “None of the tested cytokines, other than IFN-γ, had any effect”.

B3: IL-1β: pro-inflammatory cytokine, purchased from PeproTech (protein, UniProt P10749 118-269, looked up)
Interleukin-1 beta: VPIRQLHYRLRDEQQKSLVLSDPYELKALHLNGQNINQQVIFSMSFVQGEPSNDKIPVALGLKGKNLYLSCVMKDGTPTLQLESVDPKQYPKKKMEKRFVFNKIEVKSKVEFESAEFPNWYISTSQAEHKPVFLGNNSGQDIIDFTMESVSS
In the case of B3, the “expression of IFN-γ-receptor (IFN-γR) mRNA” value (CP epithelial cells; 24 h) is reported as “elevated the expression of IFN-γ-receptor”.

B4: IFN-γ: Th1-derived cytokine, purchased from PeproTech, added to cultured CP cells (protein, UniProt P01580 23-155, looked up)
Interferon gamma: HGTVIESLESLNNYFNSSGIDVEEKSLFLDIWRNWQKDGDMKILQSQIISFYLRLFEVLKDNQAISNNISVIESHLITTFFSNSKAKKDAFMSIAKFEVNNPQVQRQAFNELIRVVHQLLPESSLRKRKRSRC
B4 was tested, and the “expression of trafficking molecules (ICAM-1, VCAM-1, CCL5, CXCL10) mRNA” value (CP epithelial cells; CP epithelial cells from 70 day old WT and mSOD1 mice, IFN-γ 100 ng/ml, 24h) was “elevated the expression of trafficking molecules by both WT and mSOD1 CP cultures to a similar degree”, the “expression of the chemokine CCL20” value (CP epithelial cells; IFN-γ 100 ng/ml, 24 h) was “not” and the “expression of trafficking molecules, IFN-γ combined with TNF-α” value (CP epithelial cells; IFN-γ 100 ng/ml combined with TNF-α 100 ng/ml, 24 hours, most of the tested genes) was “strong synergistic effect”. For the same molecule, the “effect of IL-4 on CCL11 production” value (CP epithelial cells; IFN-γ (100 ng/ml) added together with IL-4, young CP epithelial cells, 24 hours) was “reversed the effect of IL-4 on CCL11 production”, the “gene expression levels” value (CP epithelial cells; [1]) was “induced the upregulation of a wide array of trafficking molecules” and the “expression of TNF-R1 mRNA” value (CP epithelial cells; cultured CP cells, IFN-γ 100 ng/ml, 24 h) was “elevated the expression of TNF-R1”. The “expression of chemokines CCL2, Fractalkine (CX3CL1) and M-CSF” value (CP epithelial cells; cultured CP cells, IFN-γ 100 ng/ml, 24 hours) was “upregulated”, the “expression of trafficking-related genes” value (CP epithelial cells; cultured CP cells) was “activated the CP in a dose dependent manner” and the “basal CCL11 expression” value (CP epithelial cells; cultured CP epithelial cells from old (22 months) mice, IFN-γ 100 ng/ml, 24 hours) was “decreased basal CCL11 expression”. For the same molecule, the “ccl11 mRNA levels (CCL11 expression)” value (CP epithelial cells; IL-4 10 ng/ml, IFN-γ 100 ng/ml) was “had no effect on CCL11 expression”, the “ICAM-1 and VCAM-1 immunostaining on CP epithelial cells” value (cultured CP cells; 3 days after addition of IFN-γ (100 ng/ml)) was “elevated” and the “IL-4 induced CCL11 immunoreactivity” value (cultured CP cells; co-incubation of IFN-γ with IL-4, following Brefeldin-A treatment (data not shown)) was “reversed this induction”.

B5: GM-CSF: cytokine purchased from PeproTech (protein, UniProt P01587 18-141, looked up)
Granulocyte-macrophage …: APTRSPITVTRPWKHVEAIKEALNLLDDMPVTLNEEVEVVSNEFSFKKLTCVQTRLKIFEQGLRGNFTKLKGALNMTASYYQTYCPPTPETDCETQVTTYADFIDSLKTFLTDIPFECKKPGQK
In the case of B5, the “expression of trafficking-related genes” value (CP epithelial cells; cultured CP cells) is reported as “None of the tested cytokines, other than IFN-γ, had any effect”.

B6: IL-17: Th17-derived cytokine, purchased from PeproTech (protein, UniProt Q62386 26-158, looked up)
Interleukin-17A: AAIIPQSSACPNTEAKDFLQNVKVNLKVFNSLGAKVSSRRPSDYLNRSTSPWTLHRNEDPDRYPSVIWEAQCRHQRCVNAEGKLDHHMNSVLIQQEILVLKREPESCPFTFRVEKMLVGVGCTCVASIVRQAA
With B6 the “expression of the chemokine CCL20” value (CP epithelial cells; IFN-γ 100 ng/ml, 24 h) was “elevated the expression of the chemokine CCL20” and the “gene expression levels” value (CP epithelial cells; [1]) was “failed to activate the choroid plexus for trafficking”.
